Data on 2 molecules can be found in PMC4877171 (Chemical research in toxicology, 2015).

Assay in all cases: cross-linking
In data set [1] the target is Human recombinant TrxR1 mutant enzyme (Sec498Cys) (human) (UniProt Q16881).
In data set [2] the target is T1, purified rat cytosolic TrxR (rat, UniProt O89049 1-499, selenocysteine at 498).
T1 sequence (looked up): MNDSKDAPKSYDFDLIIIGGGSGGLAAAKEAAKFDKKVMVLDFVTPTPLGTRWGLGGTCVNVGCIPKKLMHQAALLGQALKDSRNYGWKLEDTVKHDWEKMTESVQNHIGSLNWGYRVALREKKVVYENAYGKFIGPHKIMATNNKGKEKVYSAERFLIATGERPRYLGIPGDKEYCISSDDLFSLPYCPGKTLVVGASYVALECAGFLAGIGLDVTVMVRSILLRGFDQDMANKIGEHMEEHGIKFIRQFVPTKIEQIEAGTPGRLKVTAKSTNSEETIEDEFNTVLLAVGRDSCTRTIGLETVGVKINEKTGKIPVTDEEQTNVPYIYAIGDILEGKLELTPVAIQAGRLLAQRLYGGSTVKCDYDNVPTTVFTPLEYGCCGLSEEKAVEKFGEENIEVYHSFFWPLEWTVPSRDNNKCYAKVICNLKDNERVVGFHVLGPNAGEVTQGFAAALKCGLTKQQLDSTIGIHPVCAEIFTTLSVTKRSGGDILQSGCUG

Data set [3] concerns the molecule itself.

With “Human recombinant TrxR1 mutant enzyme (Sec498Cys) (from UniProt Q16881-5 1-499)”, the stoichiometry N in data set [1] amounted to 2.

B1: recombinant human Trx1 (natural protein)
chain: MVKQIESKTAFQEALDAAGDKLVVVDFSATWCGPCKMIKPFFHSLSEKYSNVIFLEVDVDDCQDVASECEVKCMPTFQFFKKGQKVGEFSGANKEKLEATINELV
With B1, the binding result in data set [2] was “binds”. In addition, the “stoichiometry N” value in data set [3] worked out at 2.

In general, stoichiometry N refers to the number of molecules, sites or subunits per partner or assembly.
